Measured values reported in paper PMC6058493.

Tests used:
[1] = target: prostate-specific membrane antigen (PSMA) (UniProt Q04609); assay: competition (flow cytometry, confocal microscopy); settings: 2'-fluoro pyrimidines; 3'-spacer-NH2 as purchased; cells incubated 30 min at room temperature, washed 3x with PBS; buffer, salt and pH of incubation not stated; scale: % cells bound by aptamer nanobubbles with excess free aptamer
[2] = target: prostate-specific membrane antigen (PSMA) (UniProt Q04609); assay: flow cytometry and confocal microscopy on LNCaP cells; settings: 2'-fluoro pyrimidines; 3'-spacer-NH2; cells incubated 30 min at room temperature, washed 3x with PBS; buffer, salt and pH of incubation not stated

Chain of UniProt Q04609 (Q04609 whole entry): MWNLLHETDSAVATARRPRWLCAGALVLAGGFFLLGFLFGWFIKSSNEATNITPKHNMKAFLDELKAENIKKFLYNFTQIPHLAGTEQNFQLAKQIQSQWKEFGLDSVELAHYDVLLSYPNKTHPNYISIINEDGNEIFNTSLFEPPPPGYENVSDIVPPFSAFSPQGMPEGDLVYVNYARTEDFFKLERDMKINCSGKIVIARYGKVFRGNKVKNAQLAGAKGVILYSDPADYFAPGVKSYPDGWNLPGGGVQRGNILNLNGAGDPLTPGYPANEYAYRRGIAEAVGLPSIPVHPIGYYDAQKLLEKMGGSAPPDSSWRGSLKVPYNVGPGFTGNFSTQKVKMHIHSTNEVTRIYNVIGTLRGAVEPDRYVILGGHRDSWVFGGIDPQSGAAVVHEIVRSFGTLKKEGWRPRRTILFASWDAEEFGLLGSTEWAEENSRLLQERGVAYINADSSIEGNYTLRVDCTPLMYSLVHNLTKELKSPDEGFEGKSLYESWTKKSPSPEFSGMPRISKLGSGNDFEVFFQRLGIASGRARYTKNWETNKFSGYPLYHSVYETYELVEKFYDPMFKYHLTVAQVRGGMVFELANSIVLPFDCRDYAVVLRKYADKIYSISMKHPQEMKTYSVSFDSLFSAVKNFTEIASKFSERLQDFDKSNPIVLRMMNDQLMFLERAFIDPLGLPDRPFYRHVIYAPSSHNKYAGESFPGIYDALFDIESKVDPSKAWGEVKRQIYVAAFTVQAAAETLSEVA

| Sequence | binding signal [1] | binding signal (% cells bound) [2] |
| --- | --- | --- |
| GGGAGGACGAUGCGGAUCAGCCAUGUUUACGUCACUCCU [A10-3.2 aptamer (free competitor)] | 4.07 |  |
| GGGAGGACGAUGCGGAUCAGCCAUGUUUACGUCACUCCU [A10-3.2 aptamer on siFoxM1-Apt-CNBs] |  | 82.4 |
